Assay [1] deals with mouse mitochondrial RNA polymerase (Polrmt), wild type (mouse, UniProt Q8BKF1 42-1207). The assay can be described thus: MST.
The target of assay [2] is mouse Δ320-Polrmt (N-terminal truncation mutant lacking the amino-terminal 320 amino acids) (mouse, UniProt Q8BKF1 321-1207). The assay is described as follows: MST.
mouse Δ320-Polrmt (N-terminal truncation mutant lacking the amino-terminal 320 amino acids), sequence (Q8BKF1 321-1207, stated change not applied): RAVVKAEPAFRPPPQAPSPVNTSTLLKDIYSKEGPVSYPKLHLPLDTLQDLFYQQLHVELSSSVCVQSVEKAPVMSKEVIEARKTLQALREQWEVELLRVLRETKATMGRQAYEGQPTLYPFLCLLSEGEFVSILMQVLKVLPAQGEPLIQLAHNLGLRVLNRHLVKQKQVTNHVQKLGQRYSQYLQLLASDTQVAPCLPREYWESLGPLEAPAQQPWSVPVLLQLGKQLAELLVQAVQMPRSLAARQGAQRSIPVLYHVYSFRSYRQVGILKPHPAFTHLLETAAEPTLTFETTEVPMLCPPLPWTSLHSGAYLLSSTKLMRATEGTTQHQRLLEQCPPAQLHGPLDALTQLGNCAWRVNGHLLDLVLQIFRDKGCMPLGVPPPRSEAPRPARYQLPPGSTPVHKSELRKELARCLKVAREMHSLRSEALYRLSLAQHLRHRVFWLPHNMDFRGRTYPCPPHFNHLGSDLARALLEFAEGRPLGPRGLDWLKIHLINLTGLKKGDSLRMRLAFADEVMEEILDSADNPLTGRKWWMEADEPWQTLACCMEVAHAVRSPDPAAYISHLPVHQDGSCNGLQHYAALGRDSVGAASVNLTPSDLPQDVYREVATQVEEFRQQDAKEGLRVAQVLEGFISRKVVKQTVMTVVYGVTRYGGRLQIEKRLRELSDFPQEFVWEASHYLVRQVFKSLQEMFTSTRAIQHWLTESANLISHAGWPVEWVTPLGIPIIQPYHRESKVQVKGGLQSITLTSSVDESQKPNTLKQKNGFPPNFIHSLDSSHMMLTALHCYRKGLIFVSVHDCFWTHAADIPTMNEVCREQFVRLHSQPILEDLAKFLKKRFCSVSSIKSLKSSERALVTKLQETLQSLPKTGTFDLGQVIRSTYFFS

mouse mitochondrial RNA polymerase (Polrmt), wild type, sequence (Q8BKF1 42-1207): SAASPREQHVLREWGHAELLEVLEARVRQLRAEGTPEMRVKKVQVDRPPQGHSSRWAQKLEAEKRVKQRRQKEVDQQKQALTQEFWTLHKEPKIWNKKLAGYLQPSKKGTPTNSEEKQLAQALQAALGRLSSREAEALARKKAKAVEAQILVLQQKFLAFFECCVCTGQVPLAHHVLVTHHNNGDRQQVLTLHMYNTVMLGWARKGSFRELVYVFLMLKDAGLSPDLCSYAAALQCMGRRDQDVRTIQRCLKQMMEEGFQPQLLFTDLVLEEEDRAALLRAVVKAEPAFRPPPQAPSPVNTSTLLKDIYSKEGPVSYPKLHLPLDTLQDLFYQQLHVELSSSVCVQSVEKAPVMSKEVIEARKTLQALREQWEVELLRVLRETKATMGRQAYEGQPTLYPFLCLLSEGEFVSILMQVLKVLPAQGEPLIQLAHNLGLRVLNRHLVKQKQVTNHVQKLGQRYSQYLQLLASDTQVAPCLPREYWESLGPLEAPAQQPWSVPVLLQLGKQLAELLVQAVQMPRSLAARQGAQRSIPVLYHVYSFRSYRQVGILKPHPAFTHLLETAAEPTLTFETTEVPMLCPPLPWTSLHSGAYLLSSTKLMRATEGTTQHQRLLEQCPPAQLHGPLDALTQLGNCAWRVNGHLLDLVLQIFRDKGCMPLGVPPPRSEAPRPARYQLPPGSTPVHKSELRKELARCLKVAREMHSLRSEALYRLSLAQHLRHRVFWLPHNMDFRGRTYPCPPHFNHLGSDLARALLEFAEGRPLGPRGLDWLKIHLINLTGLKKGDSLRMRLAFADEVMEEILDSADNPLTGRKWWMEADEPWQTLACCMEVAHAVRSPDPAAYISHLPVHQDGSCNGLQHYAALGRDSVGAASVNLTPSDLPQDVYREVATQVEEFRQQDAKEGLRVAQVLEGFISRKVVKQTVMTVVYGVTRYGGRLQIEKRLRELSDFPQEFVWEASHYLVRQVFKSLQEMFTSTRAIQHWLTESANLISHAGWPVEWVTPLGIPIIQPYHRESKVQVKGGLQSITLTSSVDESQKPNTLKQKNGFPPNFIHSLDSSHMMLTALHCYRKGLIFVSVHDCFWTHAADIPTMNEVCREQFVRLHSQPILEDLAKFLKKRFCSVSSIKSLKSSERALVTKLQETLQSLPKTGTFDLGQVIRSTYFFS

B1: mouse mitochondrial transcription factor B2 (Tfb2m) (natural protein, UniProt Q3TL26 44-396, looked up)
chain: SDFNIEPLPDSDLEESSPWTSRNRSEPTRHIACKKAARNLVRDLLEHQNPSRQIILECNPGPGILTGALLKAGARVVAFESEKTFIPHLEPLQRNMDGELQVVHCDFFKMDPRYQEVVRPDVSSQAIFQNLGIKAVPWSAGVPIKVFGILPYKHERRILWKILFDLYSCESIYRYGRVELNMFVSEKEFRKLIATPKRPDLYQVMAVLWQVACDVKFLHMEPWSSFSVHTENGHLEKSKHGESVNLLKQNLYLVRMTPRRTLFTENLSPLNYDIFFHLVKHCFGKRNAPIIRHLRSLSTVDPINILRQIRKNPGDTAARMYPHDFKKLFETIEQSEDSVFKWIYDYCPEDMEF
modifications: amine-labelled with NT-647 dye
Regarding B1, the values for the Kd in assay [1] and in assay [2] were 105 ± 1.2 nM and 49.4 ± 1.1 nM, respectively.

By Kd is commonly meant the concentration at which binding is half-saturated. A higher Kd goes with lower affinity.

The values above are taken from publication PMC3973307 (Nucleic Acids Research, 2014).
